Data from PMC6792138.

System: PthA4AT (7.5-repeat TAL effector) (Xanthomonas citri ssp. citri variant AT)
Assay: PBM
Settings: not stated; PBM performed as in Godoy et al. 2011

Substance	binding signal [E-score]
PBM probes with TATAACCTT	0.462
PBM probes with TATTACCCC	0.458
PBM probes with ATTATTACC	0.456
PBM probes with TTATTACCT	0.476
PBM probes with ATATCACCT	0.46
PBM probes with TTATTACCC	0.46
PBM probes with TATCGCCTT	0.454
PBM probes with TATTACCTC	0.466
PBM probes with TTATCACCT	0.464
PBM probes with TATCACCTT	0.476
PBM probes with TATTACCTT	0.481
